Assay results reported in article PMC9106292 (Science Advances, 2022).

Columns and labels:
cryo-EM structure = molecular target: the molecule itself; test: cryo-EM structure
[1] = molecular target: ASC-mCherry (full-length human ASC, TEV protease cleavage site, mCherry, C-terminal hexa-histidine tag) (human, UniProt Q9ULZ3 1-195); test: negative-stain EM
negative-stain EM = molecular target: the molecule itself; test: negative-stain EM

Sequence of ASC-mCherry (full-length human ASC, TEV protease cleavage site, mCherry, C-terminal hexa-histidine tag) (Q9ULZ3 whole entry): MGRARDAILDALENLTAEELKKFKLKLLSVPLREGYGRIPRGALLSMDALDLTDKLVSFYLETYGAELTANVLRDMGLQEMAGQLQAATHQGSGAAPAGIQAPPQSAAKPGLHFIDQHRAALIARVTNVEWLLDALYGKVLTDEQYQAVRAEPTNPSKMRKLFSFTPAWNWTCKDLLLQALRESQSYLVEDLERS

binding result [1] | Binder | binding result (cryo-EM structure) | binding result (negative-stain EM)
binds | human NLRP3^PYD (residues 3 to 110; C108S) (domain or fragment) MASTRCKLARYLEDLEDVDLKKFKMHLEDYPPQKGCIPLPRGQTEKADHVDLATLMIDFNGEEKAWAMAVWIFAAINRRDLYEKAKRDEPKWGSDNARVSNPTVISQE | binds | 
 | NLRP3^PYD (residues 3 to 110; C108S) CAPS mutant A77V (domain or fragment) MASTRCKLARYLEDLEDVDLKKFKMHLEDYPPQKGCIPLPRGQTEKADHVDLATLMIDFNGEEKAWAMAVWIFAVINRRDLYEKAKRDEPKWGSDNARVSNPTVISQE |  | binds
 | NLRP3^PYD (residues 3 to 110; C108S) CAPS mutant H51R (domain or fragment) MASTRCKLARYLEDLEDVDLKKFKMHLEDYPPQKGCIPLPRGQTEKADRVDLATLMIDFNGEEKAWAMAVWIFAAINRRDLYEKAKRDEPKWGSDNARVSNPTVISQE |  | binds
 | NLRP3^PYD (residues 3 to 110; C108S) CAPS mutant D21H (domain or fragment) MASTRCKLARYLEDLEDVHLKKFKMHLEDYPPQKGCIPLPRGQTEKADHVDLATLMIDFNGEEKAWAMAVWIFAAINRRDLYEKAKRDEPKWGSDNARVSNPTVISQE |  | binds
